{
  "source": "paper doi:10.1101/2024.10.13.618061",
  "about": "(bioRxiv, 2024)",
  "proteins": {"B1": {"name": "wheat Sr35 (Triticum monococcum; TmSr35) [change]/[change], untagged (receptor)", "chain": "MEIAMGAIGSELPKEGELLIGEITLEKKVRKGIESLITELKLMQAVLSKVSKVPADQLDEGVKIWAGNVKELSYQMEDIVDAFMVRVGDGGESTNPKNRVKKILKKVKKLFKNGKDLHRISAALEEVVLQAKQLAELRQRYEQEMRDTSANTSVDPRMMALYTDVTELVGIEETRDKLINMLTEGDDWSKHPLKTISIVGFGGLGKTTLAKAAYDKIKVQFDCGAFVSVSRNPEMKKVLKDILYGLDKVKYENIHNAARDEKYLIDDIIEFLNDKRYLIVIDDIWNEKAWELIKCAFSKKSPGSRLITTTRNVSVSEACCSSEDDIYRMEPLSNDVSRTLFCKRIFSQEEGCPQELLKVSEEILKKCGGVPLAIITIASLLANKGHIKAKDEWYALLSSIGHGLTKNRSLEQMKKILLFSYYDLPSYLKPCLLYLSIFPEDREIRRARLIWRWISEGFVYSEKQDISLYELGDSYFNELVNRSMIQPIGIDDEGKVKACRVHDMVLDLICSLSSEENFVTILDDPRRKMPNSESKVRRLSIQNSKIDVDTTRMEHMRSVTVFSDNVVGKVLDISRFKVLRVLDLEGCHVSDVGYVGNLLHLRYLGLKGTHVKDLPMEIGKLQFLLTLDLRGTKIEVLPWSVVQLRRLMCLYVDYGMKLPSGIGNLTFLEVLDDLGLSDVDLDFVKELGRLTKLRVLRLDFHGFDQSMGKALEESISNMYKLDSLDVFVNRGLINCLSEHWVPPPRLCRLAFPSKRSWFKTLPSWINPSSLPLLSYLDITLFEVRSEDIQLLGTLPALVYLEIWNYSVFEEAHEVEAPVLSSGAALFPCATECRFIGIGAVPSMFPQGAAPRLKRLWFTFPAKWISSENIGLGMRHLPSLQRVVVDVISEGASREEADEAEAALRAAAEDHPNRPILDIW"}},
  "molecular_target": "the molecule itself",
  "test": "negative-staining EM",
  "data": [
    {"protein": "B1", "values": [
      {"measurement": "stoichiometry N", "value": 5}
    ]}
  ]
}
